Each block holds one substance with its values, some of them ahead of it.
Assays:
[1] = target: FtsQ (58–276), periplasmic domain of E. coli FtsQ (Escherichia coli strain K-12) (UniProt P06136); assay: SPR; FtsQ (58–276) immobilised on a CM5 chip by amide coupling (~1,000 RU); Biacore T200, 20°C; 10 mM HEPES pH 7.4, 150 mM NaCl, 0.4% glycerol; analytes injected 120 s, 600 s dissociation, 1:2 dilution series, triplicate
[2] = target: FITC-labeled FtsB 64–87 peptide (E. coli) (UniProt P0A6S5); assay: fluorescence polarisation; 10 nM FITC-labeled FtsB 64–87 peptide, FtsQ in threefold dilutions from 800 µM to 0.5 nM; 10 mM HEPES pH 7.4, 150 mM NaCl, 0.1% Tween 20; 1 h at room temperature

Sequence of FtsQ (58–276), periplasmic domain of E. coli FtsQ (Escherichia coli strain K-12) (P06136 58-276): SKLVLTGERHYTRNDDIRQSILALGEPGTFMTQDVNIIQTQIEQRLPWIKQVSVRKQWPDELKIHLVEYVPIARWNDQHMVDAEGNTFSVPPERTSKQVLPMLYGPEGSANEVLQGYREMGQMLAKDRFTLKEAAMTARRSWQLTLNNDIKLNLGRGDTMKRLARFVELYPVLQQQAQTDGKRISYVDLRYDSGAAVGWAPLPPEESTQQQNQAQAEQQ
Sequence of FtsN (58–320) plus FtsB (22–103), bound together (A7ZQJ2 22-103): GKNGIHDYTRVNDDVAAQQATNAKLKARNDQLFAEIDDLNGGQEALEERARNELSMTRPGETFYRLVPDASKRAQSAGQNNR
Sequence of FtsN (58–320) plus FtsB (22–103), bound together (P29131 57-319): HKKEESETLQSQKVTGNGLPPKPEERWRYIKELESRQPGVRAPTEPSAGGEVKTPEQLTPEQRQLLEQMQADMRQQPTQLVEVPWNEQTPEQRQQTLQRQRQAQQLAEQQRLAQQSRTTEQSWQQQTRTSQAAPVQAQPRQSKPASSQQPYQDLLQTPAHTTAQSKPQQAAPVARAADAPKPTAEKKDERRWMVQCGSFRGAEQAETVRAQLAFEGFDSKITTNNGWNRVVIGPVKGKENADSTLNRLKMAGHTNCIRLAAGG
Sequence of FtsN (57–319), periplasmic domain of E. coli FtsN (P29131 57-319): as above

fold reduction of binding against wild-type FtsB [1]: 10 fold
Substance: FtsB R72A (from UniProt P0A6S5 22-103) (domain or fragment)

Kd [2]: 9500 nM
Substance: FtsQ (58–276), periplasmic domain of E. coli FtsQ (from UniProt P06136 58-276) (domain or fragment)

The remaining lines, values behind:

Substance: FtsB F84A (from UniProt P0A6S5 22-103) (domain or fragment)
fold reduction of binding against wild-type FtsB [1]: 10 fold

Substance: FtsN (57–319), periplasmic domain of E. coli FtsN (from UniProt P29131 57-319) (domain or fragment)
Kd [1]: 2500 nM

Substance: FtsN (58–320) plus FtsB (22–103), bound together (from UniProt P0A6S5 22-103; P29131 57-319)
Kd of FtsB and FtsN bound together [1]: 120 nM

From paper PMC6134095
